The results in this text go back to the supplement of paper PMC5998384.

For series [1], the system named is HeLa Kyoto. Description: solubility in G1/S (NP-40 vs SDS abundance) (log2 ratio); higher = more soluble. As to conditions: cell cycle stage: G1/S.
Series [2] deals with HeLa Kyoto. Description: melting temperature (median over replicates), in situ; higher = more thermally stable.
Series [3] concerns HeLa Kyoto. Kind of series: solubility change mitosis vs G1/S (difference of NP-40 vs SDS log2 ratios) (log2 ratio difference); higher = more soluble in mitosis.
The test system of series [4] is HeLa Kyoto. Description: thermal stability score vs G1/S (z-score of summed log2 fold changes over temperatures); higher = more thermally stable than in G1/S.
The mark [5] stands for this setting: cell cycle stage: early G1 (4.5 h after nocodazole release).
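Wherever melting temperature (median over replicates), in situ is given: HeLa Kyoto cells synchronized by double thymidine or nocodazole block, proteins quantified by TMT10plex mass spectrometry, three independent biological replicates.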
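Wherever solubility change mitosis vs G1/S (difference of NP-40 vs SDS log2 ratios) is given: synchronized HeLa Kyoto cells (double thymidine block for G1/S, nocodazole release for mitosis), protein amounts in NP-40 versus SDS lysates quantified by mass spectrometry, three biological replicates.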
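Wherever solubility in G1/S (NP-40 vs SDS abundance) is given: HeLa Kyoto cells arrested at G1/S by double thymidine block, proteins quantified by TMT10plex mass spectrometry in mild NP-40 versus SDS extracts, three biological replicates.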
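Wherever thermal stability score vs G1/S (z-score of summed log2 fold changes over temperatures) is given: synchronized HeLa Kyoto cells, proteins quantified by TMT10plex mass spectrometry, three biological replicates, mitosis taken 0.5 h after nocodazole release, G1/S directly after double thymidine block.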

Turning to “MSRSVLQPSQQKLAEKLTILNDRGVGMLTRLYNIKKACGDPKAKPSYLIDKNLESAVKFIVRKFPAVETRNNNQQLAQLQKEKSEILKNLALYYFTFVDVMEFKDHVCELLNTIDVCQVFFDITVNFDLTKNYLDLIITYTTLMILLSRIEERKAIIGLYNYAHEMTHGASDREYPRLGQMIVDYENPLKKMMEEFVPHSKSLSDALISLQMVYPRRNLSADQWRNAQLLSLISAPSTMLNPAQSDTMPCEYLSLDAMEKWIIFGFILCHGILNTDATALNLWKLALQSSSCLSLFRDEVFHIHKAAEDLFVNIRGYNKRINDIRECKEAAVSHAGSMHRERRKFLRSALKELATVLSDQPGLLGPKALFVFMALSFARDEIIWLLRHADNMPKKSADDFIDKHIAELIFYMEELRAHVRKYGPVMQRYYVQYLSGFDAVVLNELVQNLSVCPEDESIIMSSFVNTMTSLSVKQVEDGEVFDFRGMRLDWFRLQAYTSVSKASLGLADHRELGKMMNTIIFHTKMVDSLVEMLVETSDLSIFCFYSRAFEKMFQQCLELPSQSRYSIAFPLLCTHFMSCTHELCPEERHHIGDRSLSLCNMFLDEMAKQARNLITDICTEQCTLSDQLLPKHCAKTISQAVNKKSKKQTGKKGEPEREKPGVESMRKNRLVVTNLDKLHTALSELCFSINYVPNMVVWEHTFTPREYLTSHLEIRFTKSIVGMTMYNQATQEIAKPSELLTSVRAYMTVLQSIENYVQIDITRVFNNVLLQQTQHLDSHGEPTITSLYTNWYLETLLRQVSNGHIAYFPAMKAFVNLPTENELTFNAEEYSDISEMRSLSELLGPYGMKFLSESLMWHISSQVAELKKLVVENVDVLTQMRTSFDKPDQMAALFKRLSSVDSVLKRMTIIGVILSFRSLAQEALRDVLSYHIPFLVSSIEDFKDHIPRETDMKVAMNVYELSSAAGLPCEIDPALVVALSSQKSENISPEEEYKIACLLMVFVAVSLPTLASNVMSQYSPAIEGHCNNIHCLAKAINQIAAALFTIHKGSIEDRLKEFLALASSSLLKIGQETDKTTTRNRESVYLLLDMIVQESPFLTMDLLESCFPYVLLRNAYHAVYKQSVTSSA [NCKAP1]”, in series [1], the “solubility in G1/S (log2)” value is -0.214. The melting temperature stood at 51.5 °C in series [2] (cell cycle stage: G1/S) and 51.1 °C in series [2] (cell cycle stage: mitosis). For the same sequence, the “solubility change mitosis (log2)” value in series [3] was -0.159. The thermal stability score is -0.278 in series [4] (setting [5]) and -0.186 in series [4] (cell cycle stage: mitosis).
Regarding “MSRYGRYGGETKVYVGNLGTGAGKGELERAFSYYGPLRTVWIARNPPGFAFVEFEDPRDAEDAVRGLDGKVICGSRVRVELSTGMPRRSRFDRPPARRPFDPNDRCYECGEKGHYAYDCHRYSRRRRSRSRSRSHSRSRGRRYSRSRSRSRGRRSRSASPRRSRSISLRRSRSASLRRSRSGSIKGSRYFQSPSRSRSRSRSISRPRSSRSKSRSPSPKRSRSPSGSPRRSASPERMD [SRSF7]”, in series [1], the “solubility in G1/S (log2)” value was -1.02. The melting temperature was 50.4 °C in series [2] (cell cycle stage: G1/S) and 50.5 °C in series [2] (cell cycle stage: mitosis). In addition, the “solubility change mitosis (log2)” value in series [3] was 0.665. Besides, the thermal stability score is -4.9 in series [4] (setting [5]) and -9.15 in series [4] (cell cycle stage: mitosis).
Consider “MSSAPRRPAKGADSFCTPEPESLGPGTPGFPEQEEDELHRTLGVERFEEILQEAGSRGGEEPGRSYGEEDFEYHRQSSHHIHHPLSTHLPPDARRRKTPQGPGRKPRRRPGASPTGETPTIEEGEEDEDEASEAEGARALTQPSPVSTPSSVQFFLQEDDSADRKAERTSPSSPAPLPHQEATPRASKGAQAGTQVEEAEAEAVAVASGTAGGDDGGASGRPLPKAQPGHRSYNLQERRRIGSMTGAEQALLPRVPTDEIEAQTLATADLDLMKSHRFEDVPGVRRHLVRKNAKGSTQSGREGREPGPTPRARPRAPHKPHEVFVELNELLLDKNQEPQWRETARWIKFEEDVEEETERWGKPHVASLSFRSLLELRRTLAHGAVLLDLDQQTLPGVAHQVVEQMVISDQIKAEDRANVLRALLLKHSHPSDEKDFSFPRNISAGSLGSLLGHHHGQGAESDPHVTEPLMGGVPETRLEVERERELPPPAPPAGITRSKSKHELKLLEKIPENAEATVVLVGCVEFLSRPTMAFVRLREAVELDAVLEVPVPVRFLFLLLGPSSANMDYHEIGRSISTLMSDKQFHEAAYLADEREDLLTAINAFLDCSVVLPPSEVQGEELLRSVAHFQRQMLKKREEQGRLLPTGAGLEPKSAQDKALLQMVEAAGAAEDDPLRRTGRPFGGLIRDVRRRYPHYLSDFRDALDPQCLAAVIFIYFAALSPAITFGGLLGEKTQDLIGVSELIMSTALQGVVFCLLGAQPLLVIGFSGPLLVFEEAFFSFCSSNHLEYLVGRVWIGFWLVFLALLMVALEGSFLVRFVSRFTQEIFAFLISLIFIYETFYKLVKIFQEHPLHGCSASNSSEVDGGENMTWAGARPTLGPGNRSLAGQSGQGKPRGQPNTALLSLVLMAGTFFIAFFLRKFKNSRFFPGRIRRVIGDFGVPIAILIMVLVDYSIEDTYTQKLSVPSGFSVTAPEKRGWVINPLGEKSPFPVWMMVASLLPAILVFILIFMETQITTLIISKKERMLQKGSGFHLDLLLIVAMGGICALFGLPWLAAATVRSVTHANALTVMSKAVAPGDKPKIQEVKEQRVTGLLVALLVGLSIVIGDLLRQIPLAVLFGIFLYMGVTSLNGIQFYERLHLLLMPPKHHPDVTYVKKVRTLRMHLFTALQLLCLALLWAVMSTAASLAFPFILILTVPLRMVVLTRIFTDREMKCLDANEAEPVFDEREGVDEYNEMPMPV [SLC4A2]”, for which the “solubility in G1/S (log2)” value in series [1] is 0.054. The melting temperature in series [2] (cell cycle stage: G1/S) came to 53.9 °C; in series [2] (cell cycle stage: mitosis), 54.1 °C. The “solubility change mitosis (log2)” value in series [3] came to 0.0677. In addition, the thermal stability score in series [4] (setting [5]) is 0.464; in series [4] (cell cycle stage: mitosis) it was -0.912.
Regarding “MSSASGLRRGHPAGGEENMTETDAFYKREMFDPAEKYKMDHRRRGIALIFNHERFFWHLTLPERRGTCADRDNLTRRFSDLGFEVKCFNDLKAEELLLKIHEVSTVSHADADCFVCVFLSHGEGNHIYAYDAKIEIQTLTGLFKGDKCHSLVGKPKIFIIQACRGNQHDVPVIPLDVVDNQTEKLDTNITEVDAASVYTLPAGADFLMCYSVAEGYYSHRETVNGSWYIQDLCEMLGKYGSSLEFTELLTLVNRKVSQRRVDFCKDPSAIGKKQVPCFASMLTKKLHFFPKSN [CASP6]”, the “solubility in G1/S (log2)” value in series [1] is -0.374. For the same sequence, the melting temperature is 54.4 °C in series [2] (cell cycle stage: G1/S) and 56.6 °C in series [2] (cell cycle stage: mitosis). Further, the “solubility change mitosis (log2)” value in series [3] is -0.176. Besides, the thermal stability score in series [4] (setting [5]) is -0.607; in series [4] (cell cycle stage: mitosis) it was -1.03.
Regarding “MSSASVTAFEKEHLWMYLQALGFEPGPATIACGKIVSHTHLGVNMFDKLNRDAFHIISYFLFQVLDQSLTKEVFKFCWPPFDQKSDTEFRKHCCEWIKRISGECGSSFPQVVGSLFLSPGGPKFIHLMYHFARFVAMKYIKSNSKNSSHHFVETFNIKPQDLHKCIARCHFARSRFLQILQRQDCVTQKYQENAQLSVKQVRNLRSECIGLENQIKKMEPYDDHSNMEEKIQKVRSLWASVNETLMFLEKEREVVSSVLSLVNQYALDGTNVAINIPRLLLDKIEKQMFQLHIGNVYEAGKLNLLTVIQLLNEVLKVMKYERCQADQARLTVDLHYLEKETKFQKERLSDLKHMRYRIKDDLTTIRHSVVEKQGEWHKKWKEFLGLSPFSLIKGWTPSVDLLPPMSPLSFDPASEEVYAKSILCQYPASLPDAHKQHNQENGCRGDSDTLGALHDLANSPASFLSQSVSSSDRNSVTVLEKDTKMGTPKEKNEAISKKIPEFEVENSPLSDVAKNTESSAFGGSLPAKKSDPFQKEQDHLVEEVARAVLSDSPQLSEGKEIKLEELIDSLGSNPFLTRNQIPRTPENLITEIRSSWRKAIEMEENRTKEPIQMDAEHREVLPESLPVLHNQREFSMADFLLETTVSDFGQSHLTEEKVISDCECVPQKHVLTSHIDEPPTQNQSDLLNKKVICKQDLECLAFTKLSETSRMETFSPAVGNRIDVMGGSEEEFMKILDHLEVSCNKPSTNKTMLWNSFQISSGISSKSFKDNDFGILHETLPEEVGHLSFNSSSSSEANFKLEPNSPMHGGTLLEDVVGGRQTTPESDFNLQALRSRYEALKKSLSKKREESYLSNSQTPERHKPELSPTPQNVQTDDTLNFLDTCDLHTEHIKPSLRTSIGERKRSLSPLIKFSPVEQRLRTTIACSLGELPNLKEEDILNKSLDAKEPPSDLTR [HAUS6]”, the “solubility in G1/S (log2)” value in series [1] is -0.0247. Moreover, the values for the melting temperature in series [2] (cell cycle stage: G1/S) and in series [2] (cell cycle stage: mitosis) were 48.3 °C and 49.1 °C, respectively. The “solubility change mitosis (log2)” value in series [3] is -0.0199. Besides, the thermal stability score in series [4] (setting [5]) amounted to 0.745; in series [4] (cell cycle stage: mitosis), 1.14.
